Values belong to the binder of their own block, whether it stands above or below them.
Key:
Assay in all cases: two-hybrid library CCmax;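 also: natural log of median RNA to DNA barcode read ratio; higher means stronger binding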
P2-AA-1HGe-M = biological target: T1, P2-AA-1HGe-M; details: mean of both orientations
T1 chain: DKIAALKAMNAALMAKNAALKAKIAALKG

GCN2_T = biological target: GCN2_T
P2-AA = biological target: T2, P2-AA; details: mean of both orientations
T2 chain: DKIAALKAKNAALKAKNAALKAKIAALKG

4H465-AA = biological target: T3, 4H465-AA
T3 chain: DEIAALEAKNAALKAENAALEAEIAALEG

P2-AA-1HGe-T = biological target: T4, P2-AA-1HGe-T; details: mean of both orientations
T4 chain: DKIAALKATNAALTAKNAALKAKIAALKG

P2-AA-1HGe-H = biological target: T5, P2-AA-1HGe-H; details: mean of both orientations
T5 chain: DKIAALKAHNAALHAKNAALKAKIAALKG

4H_APH = biological target: T6, 4H_APH
T6 chain: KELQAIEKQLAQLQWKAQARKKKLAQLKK

4H58-AA = biological target: T7, 4H58-AA; details: mean of both orientations
T7 chain: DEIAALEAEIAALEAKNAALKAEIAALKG

4H_GCN4 = biological target: 4H_GCN4
Sequence of 4H_GCN4 (chain, as listed by the source): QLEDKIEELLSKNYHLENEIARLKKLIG

4H895-AA = biological target: T8, 4H895-AA; details: mean of both orientations
T8 chain: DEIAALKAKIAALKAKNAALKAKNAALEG

P2-AA-1HGe-A = biological target: T9, P2-AA-1HGe-A; details: mean of both orientations
T9 chain: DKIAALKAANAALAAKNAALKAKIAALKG

4H486-AA = biological target: T10, 4H486-AA; details: mean of both orientations
T10 chain: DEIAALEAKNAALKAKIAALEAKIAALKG

4H_BCR = biological target: T11, 4H_BCR; details: mean of both orientations
T11 chain: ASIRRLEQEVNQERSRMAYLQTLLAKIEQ

P2-AA-1HGe-D = biological target: T12, P2-AA-1HGe-D; details: mean of both orientations
T12 chain: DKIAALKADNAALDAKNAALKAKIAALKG

P2-AA-1HGe-Q = biological target: T13, P2-AA-1HGe-Q; details: mean of both orientations
T13 chain: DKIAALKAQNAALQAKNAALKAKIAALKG

4H535-AA = biological target: T14, 4H535-AA; details: mean of both orientations
T14 chain: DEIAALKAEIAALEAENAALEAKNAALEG

APC1015-AA = biological target: T15, APC1015-AA; details: mean of both orientations
T15 chain: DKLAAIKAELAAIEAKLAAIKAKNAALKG

APC8191-AA = biological target: T16, APC8191-AA; details: mean of both orientations
T16 chain: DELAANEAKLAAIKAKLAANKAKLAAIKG

4H733-AA = biological target: T17, 4H733-AA; details: mean of both orientations
T17 chain: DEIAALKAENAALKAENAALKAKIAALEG

APC2237-AA = biological target: T18, APC2237-AA; details: mean of both orientations
T18 chain: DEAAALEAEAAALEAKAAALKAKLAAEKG

APC2405-AA = biological target: T19, APC2405-AA; details: mean of both orientations
T19 chain: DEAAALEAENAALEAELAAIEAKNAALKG

APC1434-AA = biological target: T20, APC1434-AA; details: mean of both orientations
T20 chain: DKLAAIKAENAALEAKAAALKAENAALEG

4H2290-AA = biological target: T21, 4H2290-AA; details: mean of both orientations
T21 chain: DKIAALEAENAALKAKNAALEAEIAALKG

4H2447-AA = biological target: T22, 4H2447-AA; details: mean of both orientations
T22 chain: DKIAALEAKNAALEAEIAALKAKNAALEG

4H807-AA = biological target: T23, 4H807-AA; details: mean of both orientations
T23 chain: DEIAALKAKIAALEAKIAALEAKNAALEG

APC4264-AA = biological target: T24, APC4264-AA; details: mean of both orientations
T24 chain: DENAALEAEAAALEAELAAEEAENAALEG

4H2458-AA = biological target: T25, 4H2458-AA; details: mean of both orientations
T25 chain: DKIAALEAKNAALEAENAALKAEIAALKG

4H3330-AA = biological target: T26, 4H3330-AA; details: mean of both orientations
T26 chain: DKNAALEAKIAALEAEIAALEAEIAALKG

APC9096-AA = biological target: T27, APC9096-AA; details: mean of both orientations
T27 chain: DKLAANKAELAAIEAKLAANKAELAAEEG

APC4011-AA = biological target: T28, APC4011-AA; details: mean of both orientations
T28 chain: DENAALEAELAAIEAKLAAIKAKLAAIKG

APC6108-AA = biological target: T29, APC6108-AA; details: mean of both orientations
T29 chain: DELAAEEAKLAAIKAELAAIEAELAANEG

4H2148-AA = biological target: T30, 4H2148-AA; details: mean of both orientations
T30 chain: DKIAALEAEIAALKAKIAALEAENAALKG

APC9319-AA = biological target: T31, APC9319-AA; details: mean of both orientations
T31 chain: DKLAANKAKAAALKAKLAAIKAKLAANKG

APC3645-AA = biological target: T32, APC3645-AA; details: mean of both orientations
T32 chain: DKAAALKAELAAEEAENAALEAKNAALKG

4H716-AA = biological target: T33, 4H716-AA; details: mean of both orientations
T33 chain: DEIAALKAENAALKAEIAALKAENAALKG

APC8910-AA = biological target: T34, APC8910-AA; details: mean of both orientations
T34 chain: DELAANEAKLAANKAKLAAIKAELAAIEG

APC4436-AA = biological target: T35, APC4436-AA; details: mean of both orientations
T35 chain: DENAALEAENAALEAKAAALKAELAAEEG

4H2143-AA = biological target: T36, 4H2143-AA
T36 chain: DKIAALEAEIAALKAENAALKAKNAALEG

APC232-AA = biological target: T37, APC232-AA; details: mean of both orientations
T37 chain: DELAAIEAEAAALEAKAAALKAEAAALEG

APC5383-AA = biological target: T38, APC5383-AA; details: mean of both orientations
T38 chain: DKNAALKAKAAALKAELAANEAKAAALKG

APC7099-AA = biological target: T39, APC7099-AA; details: mean of both orientations
T39 chain: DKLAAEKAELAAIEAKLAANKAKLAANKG

interaction score (P2-AA-1HGe-M): 1.47
interaction score (GCN2_T): -1.97
interaction score (P2-AA): 1.61
interaction score (4H465-AA): -1.82
interaction score (P2-AA-1HGe-T): 2.11
interaction score (P2-AA-1HGe-H): 1.53
interaction score (4H_APH): -1.84
interaction score (4H58-AA): 0.877
interaction score (4H_GCN4): -2.34
interaction score (4H895-AA): -1.13
interaction score (P2-AA-1HGe-A): 1.85
interaction score (4H486-AA): -1.47
interaction score (4H_BCR): -1.2
interaction score (P2-AA-1HGe-D): 1.36
interaction score (P2-AA-1HGe-Q): 1.82
interaction score (4H535-AA): -1.58
B1: 4H465-AA (peptide)
chain: DEIAALEAKNAALKAENAALEAEIAALEG

interaction score (APC1015-AA): -1.78
interaction score (APC8191-AA): -1.3
interaction score (4H733-AA): -1.41
interaction score (APC2237-AA): -1.56
interaction score (APC2405-AA): -1.48
interaction score (APC1434-AA): -1.23
interaction score (4H2290-AA): -1.42
interaction score (4H2447-AA): -1.64
interaction score (4H807-AA): -1.57
interaction score (APC4264-AA): -1.81
interaction score (4H2458-AA): -1.32
interaction score (4H3330-AA): -0.836
interaction score (APC9096-AA): -1.82
interaction score (APC4011-AA): -0.0916
interaction score (APC6108-AA): -1.49
interaction score (4H2148-AA): -1.43
interaction score (APC9319-AA): -1.6
interaction score (APC3645-AA): -1.25
interaction score (4H716-AA): -1.59
interaction score (APC8910-AA): -1.84
interaction score (APC4436-AA): -1.85
interaction score (4H2143-AA): 2.12
interaction score (APC232-AA): -2.06
interaction score (APC5383-AA): -1.98
interaction score (APC7099-AA): -1.51
B2: 4H2143-AA (peptide)
chain: DKIAALEAEIAALKAENAALKAKNAALEG

Reference: article PMC10397247
